Reference: patent publication US8927230B2, “C-terminal modification of polypeptides” (EUCODIS Bioscience GmbH, priority 2004, dated 2015)

Target: T1, N^α-benzoylated peptides of SEQ ID NOs: 2-18 (Rattus norvegicus, UniProt P00763, D194K/E154H/K66E/N146H)
T1 construct: made in house; host or cells: E. coli or yeast (general procedure; the host actually used is not fixed)
T1 sequence (P00763 24-246 K66E/N146H/E154H/D194K): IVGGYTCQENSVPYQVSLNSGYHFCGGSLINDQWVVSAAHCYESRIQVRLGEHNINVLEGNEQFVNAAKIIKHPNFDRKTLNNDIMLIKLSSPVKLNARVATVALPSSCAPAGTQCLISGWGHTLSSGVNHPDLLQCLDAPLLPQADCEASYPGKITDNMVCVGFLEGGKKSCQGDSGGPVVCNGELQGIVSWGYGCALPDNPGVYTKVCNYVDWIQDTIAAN
Assay: Influence of the recognition sequence on the rate of reaction catalyzed by the trypsin variant (HPLC, peptide consumption)
Type: biochemical
Conditions: 1 mM peptide, 20 μM trypsin variant, 100 μM ZnCl2, 0.1 M Pipes/Tris-buffer pH 8.0, 30° C.
Description: Variant trypsin according to the present invention has been tested for catalytic activity upon peptide substrates with different peptide sequences at or close to the cleavage site. The initial rate (v) of peptide consumption is given in nM/min
The N^α-benzoylated peptides of SEQ ID NOs: 2-18 have been synthesized by conventional solid-phase peptide synthesis using Fmoc-chemistry and a preloaded Wang-resin. The respective amino acid building blocks are commercially available and were purchased from various suppliers.
1 ml reaction volume containing 1 mM N^α-benzoylated peptide dissolved in 0.1 M Pipes/Tris-buffer pH 8.0; 20 μM trypsin variant Tn K60E, E151H, N143H, D189K; 100 μM ZnCl2 was stirred at 30° C. After defined time intervals, the reactions were terminated by adding of 1% trifluoroacetic acid in methanol/water (1:1, v/v). The quenched reaction mixtures were analyzed by analytical HPLC. The identity of the final products was verified by mass spectroscopy.

B1: Tn K60E, E151H, N143H, D189K: mutated anionic rat trypsin II, without signal sequence and pro-sequence (SEQ ID NO: 1), with K60E, N143H, E151H, D189K (protein)
chain: T1 sequence (P00763 24-246 K66E/N146H/E154H/D194K)
cleavage site preference (substrate specificity from initial rates of peptide consumption, FIG. 4): strong preference for a cleavage site comprising L, F or Y in position P1, R or K in position P1′ and His in position P2′
